Numbered stars: 1 amine (or outer) side, 2 acyl side, 3 side chain; on linkers, the order of the positions; unused ones are H or OH. Bridge positions count the residues as written; N and C are the ends. Side chains are listed from the residue outwards. Peptide text beside a SMILES is read from it. * marks the point of attachment. X1 = C/C(=N\O)C(C)(C)NCCC(CCNC(C)(C)/C(C)=N/O)CCN*; Glutaryl = O=C(CCCC(=O)[*:2])[*:1]; X2 = NC(=O)COCC(=O)NCCOCCOCCOCCN*
How the values were obtained:
healthy volunteers [1] = experiment: Phase 1 safety assessment (adverse events, vital signs, ECG, laboratory parameters)
Description: In 2003, a phase 1, placebo-controlled, observer-blinded, randomised, single ascending-dose study was performed. The study aimed to assess the safety of three intravenous levels of maraciclatide and the biodistribution and radiation dosimetry of ^99mTc-maraciclatide in healthy volunteers, assessing the potential of ^99mTc-maraciclatide as a radiopharmaceutical for diagnostic imaging.
Safety data on vital signs (heart rate, blood pressure, temperature, and oxygen saturation), electrocardiograms (ECG), laboratory parameters and physical examinations (general appearance, lung, abdominal, cardiovascular, and neurological exam by a qualified clinician) were measured prior to administration, and at multiple time points up to 7 days following administration. Based on clinical assessment, new abnormal or worsening clinical findings were defined as a change from the participant’s normal baseline to abnormal. All abnormal changes were recorded as adverse events (AEs).
Safety assessments were performed by an observer blinded to the administration of the placebo and ^99mTc-maraciclatide. A thorough review of safety data was performed before the decision was made to escalate to the higher dose in participants.

integrin receptor αvβ3 = settings: background statement, no reference printed; cited from earlier work
healthy volunteers [2] = test system: healthy volunteers; parameters: method as in PMID 17353156; settings: human urine, highest dose group (150 micrograms maraciclatide), reversed-phase LC ion-trap MS; cited from earlier work
clinical = experiment: clinical; parameters: species or system human; settings: human, in vivo, iv
Description: (§1) To calculate ^99mTc-maraciclatide ex-vivo activity, blood, plasma, urine, and faeces were collected at various time points after administration. Blood and plasma samples were collected at 10 min, 30 min, 1 h, 2 h, 4 h, 8 h, 24 h, 48 h, 72 h, and 7 days post-administration. Concentrations of maraciclatide in plasma were assayed using the LC-MS method (LOQ was 0.5 ng/ml). Urine was also collected at the same time points (if possible) up to 24 h post-administration. Faecal samples were collected as voided for up to 24 h post-administration. Assayed samples for ^99mTc-maraciclatide content were then measured using a gamma counter.
(§2) Concentrations of maraciclatide in plasma were assayed using the LC-MS method (LOQ was 0.5 ng/ml). The mean apparent terminal elimination half-life was approximately 1 h. Overall, systemic clearance was approximately 6.7 ml/min/kg, whilst the mean apparent volume of distribution was approximately 520 ml/kg. The majority of ^99mTc activity was excreted through the urinary pathway and GI tract, 55% and 16%, respectively.

healthy volunteers [3] = experiment: clinical; parameters: species or system human; settings: in vivo, iv
Description: as §1, §2

In the case of `C/C(=N\O)C(C)(C)NCCC(CCNC(=O)CCCC(=O)NCCCC[C@@H]1NC(=O)CSC[C@@H](C(=O)NCCOCCOCCOCCNC(=O)COCC(N)=O)NC(=O)[C@H](Cc2ccccc2)NC(=O)[C@@H]2CSSC[C@H](NC1=O)C(=O)N[C@@H](CCCNC(=N)N)C(=O)NCC(=O)N[C@@H](CC(=O)O)C(=O)N2)CCNC(C)(C)/C(C)=N/O` (stereo partly shown) [Maraciclatide] ({CH2CO}-K([Glutaryl-X1])CRGDCFC-X2; disulfide 2-6; thioether N-8; N-terminus and C-terminus assumed), the “Abdominal pain: Cause of AE” value (healthy volunteers [1]; 15 μg maraciclatide (n = 8)) is reported as “IMP”, the “Blood phosphate decrease: No. with AEs” value (healthy volunteers [1]; 15 μg maraciclatide (n = 8)) is reported as 0 and the “Cardiac disorder: No. of AEs” value (healthy volunteers [1]; 15 μg maraciclatide (n = 8)) is reported as 0. For the same compound, the “Cardiac disorder: No. with AEs” value (healthy volunteers [1]; 15 μg maraciclatide (n = 8)) was 0, the “Contact dermatitis: Cause of AE” value (healthy volunteers [1]; 15 μg maraciclatide (n = 8)) was “Procedural complication” and the “Contact dermatitis: No. of AEs” value (healthy volunteers [1]; 15 μg maraciclatide (n = 8)) was 1. For the same compound, the “Contact dermatitis: No. with AEs” value (healthy volunteers [1]; 15 μg maraciclatide (n = 8)) was 1, the “Crystal urine present: No. of AEs” value (healthy volunteers [1]; 15 μg maraciclatide (n = 8)) was 0 and the “Crystal urine present: No. with AEs” value (healthy volunteers [1]; 15 μg maraciclatide (n = 8)) was 0. For the same compound, the “Diarrhoea: Cause of AE” value (healthy volunteers [1]; 15 μg maraciclatide (n = 8)) was “IMP”, the “Diarrhoea: No. of AEs” value (healthy volunteers [1]; 15 μg maraciclatide (n = 8)) was 1 and the “Diarrhoea: No. with AEs” value (healthy volunteers [1]; 15 μg maraciclatide (n = 8)) was 1. The “Dizziness: Cause of AE” value (healthy volunteers [1]; 15 μg maraciclatide (n = 8)) was “IMP”, the “Dizziness: No. of AEs” value (healthy volunteers [1]; 15 μg maraciclatide (n = 8)) was 1 and the “Dizziness: No. with AEs” value (healthy volunteers [1]; 15 μg maraciclatide (n = 8)) was 1. The “ECG PR shortened: No. of AEs” value (healthy volunteers [1]; 15 μg maraciclatide (n = 8)) was 0, the “ECG PR shortened: No. with AEs” value (healthy volunteers [1]; 15 μg maraciclatide (n = 8)) was 0 and the “ECG QRS complex prolonged: No. of AEs” value (healthy volunteers [1]; 15 μg maraciclatide (n = 8)) was 0. The “ECG QRS complex prolonged: No. with AEs” value (healthy volunteers [1]; 15 μg maraciclatide (n = 8)) was 0, the “Herpes simplex virus: No. with AEs” value (healthy volunteers [1]; 15 μg maraciclatide (n = 8)) was 0 and the “Hyperkalaemia: No. of AEs” value (healthy volunteers [1]; 15 μg maraciclatide (n = 8)) was 0. The “Hyperkalaemia: No. with AEs” value (healthy volunteers [1]; 15 μg maraciclatide (n = 8)) was 0, the “Hypoaesthesia: Cause of AE” value (healthy volunteers [1]; 15 μg maraciclatide (n = 8)) was “IMP” and the “Hypoaesthesia: No. of AEs” value (healthy volunteers [1]; 15 μg maraciclatide (n = 8)) was 1. The “Hypoaesthesia: No. with AEs” value (healthy volunteers [1]; 15 μg maraciclatide (n = 8)) was 1, the “Infection: No. of AEs” value (healthy volunteers [1]; 15 μg maraciclatide (n = 8)) was 1 and the “Infection: No. with AEs” value (healthy volunteers [1]; 15 μg maraciclatide (n = 8)) was 1. The “Blood phosphate decrease: No. with AEs” value (healthy volunteers [1]; 75 μg maraciclatide (n = 8)) was 1, the “Cardiac disorder: No. of AEs” value (healthy volunteers [1]; 75 μg maraciclatide (n = 8)) was 1 and the “Cardiac disorder: No. with AEs” value (healthy volunteers [1]; 75 μg maraciclatide (n = 8)) was 1. The “Crystal urine present: No. of AEs” value (healthy volunteers [1]; 75 μg maraciclatide (n = 8)) was 0, the “Crystal urine present: No. with AEs” value (healthy volunteers [1]; 75 μg maraciclatide (n = 8)) was 0 and the “Dizziness: No. of AEs” value (healthy volunteers [1]; 75 μg maraciclatide (n = 8)) was 0. The “Dizziness: No. with AEs” value (healthy volunteers [1]; 75 μg maraciclatide (n = 8)) was 0, the “ECG PR shortened: No. of AEs” value (healthy volunteers [1]; 75 μg maraciclatide (n = 8)) was 0 and the “ECG PR shortened: No. with AEs” value (healthy volunteers [1]; 75 μg maraciclatide (n = 8)) was 0. For the same compound, the “ECG QRS complex prolonged: Cause of AE” value (healthy volunteers [1]; 75 μg maraciclatide (n = 8)) was “Unrelated medical condition”, the “ECG QRS complex prolonged: No. of AEs” value (healthy volunteers [1]; 75 μg maraciclatide (n = 8)) was 1 and the “ECG QRS complex prolonged: No. with AEs” value (healthy volunteers [1]; 75 μg maraciclatide (n = 8)) was 1. For the same compound, the “Herpes simplex virus: No. with AEs” value (healthy volunteers [1]; 75 μg maraciclatide (n = 8)) was 0, the “Hyperkalaemia: No. of AEs” value (healthy volunteers [1]; 75 μg maraciclatide (n = 8)) was 0 and the “Hyperkalaemia: No. with AEs” value (healthy volunteers [1]; 75 μg maraciclatide (n = 8)) was 0. For the same compound, the “Hypoaesthesia: No. of AEs” value (healthy volunteers [1]; 75 μg maraciclatide (n = 8)) was 0, the “Hypoaesthesia: No. with AEs” value (healthy volunteers [1]; 75 μg maraciclatide (n = 8)) was 0 and the “Hyporeflexia: Cause of AE” value (healthy volunteers [1]; 75 μg maraciclatide (n = 8)) was “Other”. The “Hyporeflexia: No. of AEs” value (healthy volunteers [1]; 75 μg maraciclatide (n = 8)) was 1, the “Hyporeflexia: No. with AEs” value (healthy volunteers [1]; 75 μg maraciclatide (n = 8)) was 1 and the “Infection: No. of AEs” value (healthy volunteers [1]; 75 μg maraciclatide (n = 8)) was 0. For the same compound, the “Infection: No. with AEs” value (healthy volunteers [1]; 75 μg maraciclatide (n = 8)) was 0, the “Blood phosphate decrease: No. with AEs” value (healthy volunteers [1]; 150 μg maraciclatide (n = 8)) was 0 and the “Cardiac disorder: No. of AEs” value (healthy volunteers [1]; 150 μg maraciclatide (n = 8)) was 0. For the same compound, the “Cardiac disorder: No. with AEs” value (healthy volunteers [1]; 150 μg maraciclatide (n = 8)) was 0, the “Crystal urine present: Cause of AEs” value (healthy volunteers [1]; 150 μg maraciclatide (n = 8)) was “IMP” and the “Crystal urine present: No. of AEs” value (healthy volunteers [1]; 150 μg maraciclatide (n = 8)) was 1. For the same compound, the “Crystal urine present: No. with AEs” value (healthy volunteers [1]; 150 μg maraciclatide (n = 8)) was 1, the “Diarrhoea: No. of AEs” value (healthy volunteers [1]; 150 μg maraciclatide (n = 8)) was 0 and the “Diarrhoea: No. with AEs” value (healthy volunteers [1]; 150 μg maraciclatide (n = 8)) was 0. For the same compound, the “Dizziness: No. of AEs” value (healthy volunteers [1]; 150 μg maraciclatide (n = 8)) was 0, the “Dizziness: No. with AEs” value (healthy volunteers [1]; 150 μg maraciclatide (n = 8)) was 0 and the “ECG PR shortened: No. of AEs” value (healthy volunteers [1]; 150 μg maraciclatide (n = 8)) was 0. For the same compound, the “ECG PR shortened: No. with AEs” value (healthy volunteers [1]; 150 μg maraciclatide (n = 8)) was 0, the “ECG QRS complex prolonged: No. of AEs” value (healthy volunteers [1]; 150 μg maraciclatide (n = 8)) was 0 and the “ECG QRS complex prolonged: No. with AEs” value (healthy volunteers [1]; 150 μg maraciclatide (n = 8)) was 0. For the same compound, the “Herpes simplex virus: No. with AEs” value (healthy volunteers [1]; 150 μg maraciclatide (n = 8)) was 1, the “Hyperkalaemia: Cause of AEs” value (healthy volunteers [1]; 150 μg maraciclatide (n = 8)) was “Procedural complication” and the “Hyperkalaemia: No. of AEs” value (healthy volunteers [1]; 150 μg maraciclatide (n = 8)) was 1. The “Hyperkalaemia: No. with AEs” value (healthy volunteers [1]; 150 μg maraciclatide (n = 8)) was 1, the “Hypoaesthesia: No. of AEs” value (healthy volunteers [1]; 150 μg maraciclatide (n = 8)) was 0 and the “Hypoaesthesia: No. with AEs” value (healthy volunteers [1]; 150 μg maraciclatide (n = 8)) was 0. For the same compound, the “Hyporeflexia: No. of AEs” value (healthy volunteers [1]; 150 μg maraciclatide (n = 8)) was 0, the “Hyporeflexia: No. with AEs” value (healthy volunteers [1]; 150 μg maraciclatide (n = 8)) was 0 and the “Infection: No. of AEs” value (healthy volunteers [1]; 150 μg maraciclatide (n = 8)) was 1. The “Infection: No. with AEs” value (healthy volunteers [1]; 150 μg maraciclatide (n = 8)) was 1, the “AEs deemed related to maraciclatide (number)” value (healthy volunteers [1]; in vivo) was 7 and the “AEs deemed related to maraciclatide (percent)” value (healthy volunteers [1]; in vivo) was 23%. For the same compound, the “affinity to αvβ3” value (integrin receptor αvβ3) was “nanomolar affinity”, the metabolites in urine (healthy volunteers [2]) was “no metabolites were detected” and the “species observed in urine samples (in-vivo stability)” value (healthy volunteers [2]) was “Only intact maraciclatide was observed”. The Vd (clinical) was about 0.52 L/kg, the clearance (clinical) was about 6.7 mL/min/kg and the half-life (clinical) was about 1 h. The “plasma concentration time course” value (healthy volunteers [3]) was “bi-exponential decline”.
